In the RNAGym collection of RNA variant scans (doi:10.1073/pnas.2313332121):

B1: TPR t1 (parent)
chain: GACCAAUCUGCCCUCAGAGCUCGAGAACAUCUUCGGAUGCAGAGGAGGCAGGCUUCGGUGGCGCGAUAGCGCCAACGUCCUCAACCUCCAAUGCAUCCCACCACAUGAUGAUGCCUGAAGAGCCUUGGUUUUUUG

Variants of: B1
Assay: polymerase ribozyme fitness, log enrichment relative to wild type (log ratio); higher = more active; in vitro selection for triplet polymerase activity
Summary of the method: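 Mutant libraries for each subunit of a heterodimeric triplet polymerase ribozyme were made by PCR and then transcribed. Each library underwent one round of in vitro selection in triplicate: annealing with a biotinylated primer, the partner subunit and triplets, frozen incubation at −7 °C, gel excision of extended constructs, streptavidin-bead capture and RT-PCR. Input and output libraries were Illumina-sequenced, and only genotypes with ≥10 input reads and ≥1 read per output were kept. Fitness is the logarithm, base 2, of genotype enrichment over wild-type enrichment, computed from inverse-variance-weighted replicate averages.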

Row | Variant | polymerase ribozyme fitness (log ratio)
1 | C12U G51C C79U | -2.71
2 | A24G G44U G61A A74U U133G | -3.56
3 | A16U C114U | -4.86
4 | A46U G61U | -0.648
5 | C101U C123A | 0.0488
6 | A90G G113U A118C | -4.53
7 | A100C U112C A118G | 0.0171
8 | C8G C15A C20U C56A G57U | -1.84
9 | G10C C11U C20U G48A C82U | -3
10 | C56G C98A U112A C123A | -4.9
11 | U9G A43U G52U C72U C82A | -3
12 | C80U U112G G117C | -5.23
13 | C62A G110U | -2.92
14 | C56A G61A G110U | -4.01
15 | G10C A41C G71C G122A | -2.21
16 | A37U U125G | -1.07
17 | G36A A37G A111G G113C A121C | -5.88
18 | G60A G61U G127C | -5.15
19 | C88A G93C | -2.45
20 | A18U U38G G71A C89A U129A | -6.64
21 | C11A A27G A41U C49G G61U | -3.34
22 | C3A C72U C94G | -3.51
23 | C11G G17A U81A C85U G117C | -4.91
24 | A26G C62U U133A | -4.26

Row | Variant | polymerase ribozyme fitness (log ratio)
25 | C15U G44U G63C A66U G117U G128A | -6.51
26 | C62A U78G U87C | -1.47
27 | G17A G61A C124U | -2.13
28 | G39U C62A | -2.16
29 | C40U G48A C53A G61A U132A | -0.596
30 | A2U A5C | -2.09
31 | G42U G61U C88G C101A G120C | -3.56
32 | A74U G93A C123A | -0.279
33 | U78G C85A G120A | -0.262
34 | A50U C104U | -0.896
35 | A111C U133C | 1.26
36 | A46U G48A G128A | -4.23
37 | A46G C49A U112C | 1.28
38 | C82A U116C | -0.539
39 | G61A G120A C123U | 1.5
40 | G60C C124G | 0.305
41 | A6G G25A C34U G42C G69C U87C C114A C124U | -6.61
42 | A74G C114G | -2.02
43 | G36C A91C | -1.87
44 | C13G A41C A50U U133A | -4.37
45 | U14G G113C | -4.24
46 | C8A A50C C62A C82A C85A C88U C89G A121U | -3.62
47 | G36A C64U C88U C101G | -1.84
48 | C101U U106C A111C | -0.324

Row | Variant | polymerase ribozyme fitness (log ratio)
49 | C56U G77A | 0.388
50 | C8U A84C G117A | -0.216
51 | C11G C13A C82G A84G | -1.63
52 | G60A C64A C80U C97A C115A U125A U126G | -7.2
53 | A16U G45C C56G C64U A83C | -4.1
54 | U96G G110U G120U U132C | -4.08
55 | U7G A16C U55G C56U A84G | -4.09
56 | G48U A100C A105C C123U | -4.99
57 | U7G A105C G120U | -0.828
58 | C8A C89A G122U | -0.485
59 | A5U C34G | -6.92
60 | A50G C79G U87G | -0.314
61 | C72G U133G | 0.34
62 | C3G A46U | -2.71
63 | C11U A27U G52C G61C | -4.18
64 | U14G A24G G61A U78C | -4.74
65 | A50C U92G U112A G135A | -3.14
66 | G47A C88U | -0.911
67 | C12A C15U G69A G93U U109G | -6.39
68 | C13G G52A C72G C85A | -4.46
69 | A6C G71C | -1.18
70 | C22G C64U C115U A121U | -2.57
71 | U32C A100C | -1.02
72 | A95G U125A | -0.382

Row | Variant | polymerase ribozyme fitness (log ratio)
73 | C73U C80U | -0.17
74 | A50C C53U C72U G127A U133A | -3.63
75 | C72G C101G | -1.33
76 | C56U A74C A91G | -1.72
77 | C70A A111G | -1.42
78 | G42U A43C G47C C62A U130C | -4.8
79 | G48A C85A | -0.739
80 | C40G A46C G51U C62U U87G C115G | -6.61
81 | C72G A103U | -5.45
82 | G19C C72G | -3.09
83 | C13A G69U A74U U87A A100C U109A | -5.82
84 | G57C C97U G113C | -3.16
85 | A27G U55A | -2.6
86 | C34U G63C | -3.94
87 | C11U C97A | -4.6
88 | C64U A75U U116G G122A C124G | 0.737
89 | A24G G60C C79A G122A | -5.59
90 | U59A G63U | -1.93
91 | G60U A121G | 1.76
92 | C12A C40A | -2.34
93 | C11A | -1.27
94 | C28U | -1.69
95 | C13U A29U C102U | -3.96
96 | C22U U55G U106A | -3.56

Row | Variant | polymerase ribozyme fitness (log ratio)
97 | G63C A84U G117A | -2.46
98 | G48U C72U | -1.19
99 | A26G C62U C80G G110C | -7.8
100 | U96C G128U | -1.67
101 | G44C G47U C53A C76G C102G G110C | -7.23
102 | C86U A100U | -0.74
103 | A75G C88A C104A U112A | -1.1
104 | A37G C56G U96C | -0.381
105 | C94A U112G C124G | 0.054
106 | G60C A84C | -0.975
107 | A105U G117A | -4.52
108 | A41C G69U U112C | 0.865
109 | U7G U32G C73A C98A | -4.14
110 | C49U G69U C80A | -3.24
111 | G61U C97A C124A | -2.39
112 | C56G C64G | -7.2
113 | C11U C53U C94G C123G | -1.5
114 | C64U C73U C82U | -0.57
115 | C28A G39U A43G C56U G61U C64G G120C | -6.64
116 | U7G G117C G122U | -4.49
117 | C13U A41C G52U G60C G120A U126G | -1.71
118 | U33A A46U | -4.71
119 | G47U C94U U106G G117U G120A | -5.71
120 | C4G A24C A100C U112A U116G | -5.42

Row | Variant | polymerase ribozyme fitness (log ratio)
121 | C12G C40G G45A C56U | -1.34
122 | C86A A121G | 1.66
123 | G36U G52U | -2.2
124 | U9C C98G | -5.05
125 | A18U A27G C53A G71C C85G | -8.07
126 | A26U C53A U78A G110A | -5.05
127 | A46G G77C C97U C124G | 0.934
128 | A18U G48U | -2.49
129 | A50G C80G A83G G120C | -6.33
130 | G10U C62U C72A C88U C89G A121G U132C | -1.87
131 | G58C C97U | -0.321
132 | U96G G117A A119G | 0.491
133 | U81G U125A | -3.53
134 | C8U A37G C56U C73G G110U A119U | -3.74
135 | C40U C86G | -1.6
136 | G58A G122A | -0.321
137 | A29G A46G | -1.09
138 | C85U U116A C123U U129A | -5.12
139 | A18C C53A C62U C72U C85G G122U | -4.78
140 | C12G G65C U67G A95G A108U A119U C123U | -5.89
141 | G23C A29C G48C U106G C114U | -8.24
142 | C34U G113A C115A U132A | -6.07
143 | C34A G60C A100G | -5.76
144 | G48U G110A C124G U133A | -1.53

Row | Variant | polymerase ribozyme fitness (log ratio)
145 | C49U C72G C89U | -1.07
146 | G47U U126G | -3.77
147 | U59A G77A | -0.182
148 | C20U C114U | -1.66
149 | A6C G61U U87A | -0.857
150 | G35U G63U C72U | -7.14
151 | U32C G42U | -2.17
152 | G35U G36U C124U | -5.29
153 | C11A A18U A68G G120U | -4.2
154 | G10C G61U U109C | -5.18
155 | C40A C82G | -1.95
156 | C12U G110U | -0.322
157 | C15G C124U | -0.148
158 | G23C G44U C88U A121G | -6.39
159 | C15U A26G G63C G71A C102U U109G U112A U129A | -3.42
160 | A43U G44U | -1.67
161 | C11U A18C C73U G127A | -5.36
162 | G44U G51C | -5.32
163 | G48U C72U C85A U92C G93C C101U | -3.44
164 | G35A A66C G117U | -5.98
165 | C8U C13U C28G C82G C114G | -4.82
166 | A37U U78C U87C | 0.269
167 | C13G A74G C79U | -1.86
